According to the supplement of paper PMC10201428:
± gives the standard deviation of the averaged measurements.

B1: library; a variant is named by its letters at N, in order (parent)
chain: AATGTTGTTGATGCAACCATAAAGTGATATTTAATAATTATTTATAATCAGCAACTTAACCACAAAACAACCATATATTGATATNTCACAAAACAACCATAANTTGATATTTTTGTGAATCGAGTATTTCAGCAAAACTACTGCAGTAAGAA

Columns and labels:
[1] = variants of: B1; test: relative integration efficiency (T-LR orientation) vs wild-type transposon end (log2 (normalized fold change)); transposon end mutated: left end; higher = more efficient transposition; conditions: with VchCAST RNA-guided transposition machinery (E. coli BL21(DE3) host, lacZ target)
Procedure, shortened: (§1)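 Barcode abundances in input plasmids and in genomic integration junctions were obtained by PCR amplification and Illumina sequencing. These came from E. coli BL21(DE3) co-transformed with a T7-driven effector plasmid and a pUC57 donor carrying 1549 left-end or 1849 right-end transposon variants, then plated with 0.1 mM IPTG at 37°C for 18 h. Relative integration efficiency is the output/input fold change, normalised to reference barcodes and log-transformed.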

[2] = variants of: B1; test: relative integration efficiency (T-RL orientation) vs wild-type transposon end (log2 (normalized fold change)); transposon end mutated: left end; higher = more efficient transposition; conditions: with VchCAST RNA-guided transposition machinery (E. coli BL21(DE3) host, lacZ target)
Procedure, shortened: as §1

Row | Variant | relative integration efficiency (log2) [1] | relative integration efficiency (log2) [2]
1 | ACGTGTGTTGATGCAACCATAAAGTGATATTTAATAATTATTTATAATCAGCAACTTAACCACAAAACAACCATATATTGATATCTCACAAAACAACCATAAGTTGATATTTTTGTGAATCGAGTATTTCAGCAAAACTACTGCAGTAAGAA [CG A2C T3G G4T T5G] | -0.014 ± 0.12 | -0.514 ± 0.095
2 | AATGTTGTTGATGCACCCATAAATTGATATTGCATAATTATTTATAATCAGCAACTTAACCACAAAACAACCATAAGTTGATATTTTACAAAACAACCATAAGTTGATATTTTTGTGAATCGAGTATTTCAGCAAAACTACTGCAGTAAGAA [TG A16C G24T T32G A33C T76A A77G C87T] | -0.184 ± 0.15 | -0.603 ± 0.47
3 | AATGTTGTTGATGCAACCATAAAGTGATATTTAATAATTATTTATAATCAGCAACTTAACCACAAAACAACCATATATTGATATCTCACAAAACAACCATAAGTTGATCGGGTTGTGAATCGAGTATTTCAGCAAAACTACTGCAGTAAGAA [CG A109C T110G T111G T112G] | -1.67 ± 0.36 | -1.4 ± 0.41
4 | AATGTTGTTGATGCAACCATTTAGTGATATTTAATAATTATTTATAATCAGCAACTTAACCACAAAACAACCATATATTGATATCTCACAAAACAACCATAAGTTGATATTTTTGTGAATCGAGTATTTCAGCAAAACTACTGCAGTAAGAA [CG A21T A22T] | -0.163 ± 0.75 | -0.172 ± 0.32
5 | AATGTTGTTGATGCAACCATAAAGTGATATTTAATAATTATTGCTGAAGCGAGACACCACCACAAAACAACCATATATTGATATCTCACAAAACAACCATAAGTTGATATTTTTGTGAATCGAGTATTTCAGCAAAACTACTGCAGTAAGAA [CG T43G A44C A46G T48A C49G A50C C52A A53G T56A T57C A58C] | -2.81 ± 2.2 | -2.55 ± 1
6 | AATGTTGTTGATGCAACCATAAAGTGATATTTAATAATTATTTATAATCAGCAACTTAACCACAAAACAACCATATATTGATATCTCACAAAACAGCCATAAGTTGATATTTTTGTGAATCGAGTATTTCAGCAAAACTACTGCAGTAAGAA [CG A96G] | -1.06 ± 0.18 | -0.704 ± 0.32
7 | AATGTTGTTGATGCAACCATAAAGTTATATTTAATAATTATTTATAATCAGCAACTTAACCACAAAACAACCATATATTTATATCTCACAAAACAACCATAAGTTTATATTTTTGTGAATCGAGTATTTCAGCAAAACTACTGCAGTAAGAA [CG G26T G80T G106T] | -1.86 ± 1.8 | -2.79 ± 1.3
8 | AATGTTGTTGATGCAACCATAAAGTGATATTTAATAATTATTTATATTCAGCAACTTAACCACAAAACAACCATATATTGATATCTCACAAAACAACCATAAGTTGATATTTTTGTGAATCGAGTATTTCAGCAAAACTACTGCAGTAAGAA [CG A47T] | 0.0475 ± 0.098 | 0.0568 ± 0.074
9 | AATGTTGTTGATGCAACCATAAAGTGATATTTAATAATTATTTATAATCAGCACATTAACCACAAAACAACCATATATTGATATCTCACAAAACAACCATAAGTTGATATTTTTGTGAATCGAGTATTTCAGCAAAACTACTGCAGTAAGAA [CG A54C C55A] | 0.298 ± 0.28 | -0.0734 ± 0.078
10 | AATGTTGTTGATGCAACCATAAAGTGATATTTAAATATTATTTATAATCAGCAACTTAACCACAAAACAACCATATATTGATATCTCACAAAACAACCATAAGTTGATATTTTTGTGAATCGAGTATTTCAGCAAAACTACTGCAGTAAGAA [CG T35A A36T] | 0.24 ± 0.31 | 0.1527 ± 0.00087
11 | AATGTTGTTGAAACAACCATAAAGTGATAACAAATAATTATTTATAATCAGCAACTTAACCACAAAACAACCATATCTTGATATCGCACAAAACAACCATAAGTTGATATTTTTGTGAATCGAGTATTTCAGCAAAACTACTGCAGTAAGAA [CG T12A G13A T30A T31C T32A A77C T86G] | -0.4 ± 0.61 | -0.303 ± 0.3
12 | AATGTTGTTGATGCAACCATAAAGTGATATTTAATAATTATTTATAATCAGCAAGAATACCACAAAACAACCATATATTGATATCTCACAAAACAACCATAAGTTGATATTTTTGTGAATCGAGTATTTCAGCAAAACTACTGCAGTAAGAA [CG C55G T56A T57A A58T] | -2.28 ± 0.67 | -0.983 ± 0.39
13 | AATGTTGTTGATGCAACCATAAAGTGATATTTAATAATTATTTATAATCAGCAACTTAACGTCAAAACAACCATATATTGATATCTCACAAAACAACCATAAGTTGATATTTTTGTGAATCGAGTATTTCAGCAAAACTACTGCAGTAAGAA [CG C61G A62T] | -0.236 ± 0.51 | -0.362 ± 0.074
14 | AATGTTGTTGATGCAACCATAAAGTGATATGGCCTAATTATTTATAATCAGCAACTTAACCACAAAACAACCATATATTGATATCTCACAAAACAACCATAAGTTGATATTTTTGTGAATCGAGTATTTCAGCAAAACTACTGCAGTAAGAA [CG T31G T32G A33C A34C] | -0.805 ± 0.2 | -0.592 ± 0.32
15 | AATGTTGTTGATGCAACCATAAAATGATAATTAATAATTATTTATAATCAGCAACTTAACCACAAAACAACCATATATTGATATCTCACAAAACAACCATATATTGATATCTCTGTGAATCGAGTATTTCAGCAAAACTACTGCAGTAAGAA [CA G24A T30A A102T T111C T113C] | 0.116 ± 0.42 | -0.31 ± 0.36
16 | AATGTTGTTGATGCAACCATAAAGTGATATTTAATAATTATTTATAATCAGCTTCTTAACCACAAAACAACCATATATTGATATCTCACAAAACAACCATAAGTTGATATTTTTGTGAATCGAGTATTTCAGCAAAACTACTGCAGTAAGAA [CG A53T A54T] | -0.0995 ± 0.047 | -0.0854 ± 0.17
17 | AATGTTGTTGATGCACCCATAAATTGATAATTAATAATTATTTATAATCAGCAACTTAACCACAAAACAACCATATATTGATATCTCACAAAACACCCATAAATTGATATTGCTGTGAATCGAGTATTTCAGCAAAACTACTGCAGTAAGAA [CA A16C G24T T30A A96C T112G T113C] | -0.699 ± 0.71 | -0.628 ± 0.18
18 | AATGTTGTTGATGCAACCATAAAGTGATATTTAATAATTATTTATAATCAGCAACTTAACCACAAAACAACCATATATTGATATCAGACAAAACAACCATAAGTTGATATTTTTGTGAATCGAGTATTTCAGCAAAACTACTGCAGTAAGAA [CG T86A C87G] | 0.622 ± 0.21 | 0.28 ± 0.099
19 | AATGTTGTTGATGCAACCATAAAGTGATATTTAATAATTATTTATAATCAGCAACTTAACCACAAAACAACCATATATTGATATCTCACAAAACAACCATAAGTTGATATTTTTGTGAAGCGAGTATTTCAGCAAAACTACTGCAGTAAGAA [CG T120G] | -0.103 ± 0.1 | -0.231 ± 0.1
